Test results: the supplement of paper PMC10065799, “High-throughput profiling of sequence recognition by tyrosine kinases and SH2 domains using bacterial peptide display” (eLife, 2023)

Legend:
AncSZ = test: phosphorylation enrichment, bacterial display (enrichment ratio); higher = better substrate or ligand; peptides without Tyr show the background
EPHB1 = EPHB1 (UniProt P54762); test: as above
EPHB2 = EPHB2 (UniProt P29323); test: as above
FGFR1 = FGFR1 (UniProt P11362); test: as above
FGFR3 = FGFR3 (UniProt P22607); test: as above
Fer (mouse) = test: as above
Fes = Fes (UniProt P07332); test: as above
Fyn = Fyn (UniProt P06241); test: as above
Hck = Hck (UniProt P08631); test: as above
Jak2 = Jak2 (UniProt O60674); test: as above
MERTK = MERTK (UniProt Q12866); test: as above
c-Abl (mouse) = test: as above
c-Src = test: as above
Grb2 SH2 = Grb2 SH2 (UniProt P62993); test: SH2 binding enrichment of the phosphorylated peptide, bacterial display (enrichment ratio); higher = better substrate or ligand; peptides without Tyr show the background
SHP2-C SH2 = test: as above
c-Src SH2 = test: as above
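For SH2 binding enrichment of the phosphorylated peptide, bacterial display in this document: peptide library displayed on the E. coli surface as eCPX fusions, selected cells deep-sequenced, score is each peptide's frequency after selection divided by its frequency in the input.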
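For phosphorylation enrichment, bacterial display in this document: 11-residue human phosphosite peptides and single-mutation variants displayed on the E. coli surface, counted by deep sequencing, each peptide's frequency after selection divided by its frequency in the unselected input library; frequency after pTyr selection over input frequency; kinase dosed for 20-30% of maximal phosphorylation in three min.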

Fyn, sequence (P06241 whole entry, looked up): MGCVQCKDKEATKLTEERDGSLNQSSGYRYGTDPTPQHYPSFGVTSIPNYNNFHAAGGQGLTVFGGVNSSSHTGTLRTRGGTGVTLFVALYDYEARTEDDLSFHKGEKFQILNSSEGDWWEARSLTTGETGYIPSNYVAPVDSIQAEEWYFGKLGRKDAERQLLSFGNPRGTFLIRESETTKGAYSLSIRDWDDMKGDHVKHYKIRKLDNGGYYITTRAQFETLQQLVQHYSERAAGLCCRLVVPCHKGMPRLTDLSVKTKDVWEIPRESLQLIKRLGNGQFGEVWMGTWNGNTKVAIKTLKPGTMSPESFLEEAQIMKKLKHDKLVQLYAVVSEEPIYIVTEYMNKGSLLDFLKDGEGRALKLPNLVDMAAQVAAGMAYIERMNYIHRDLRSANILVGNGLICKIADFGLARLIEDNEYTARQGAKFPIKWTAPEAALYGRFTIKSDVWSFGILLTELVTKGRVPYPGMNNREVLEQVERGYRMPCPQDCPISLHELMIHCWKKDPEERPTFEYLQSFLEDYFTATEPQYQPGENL
EPHB2, sequence (P29323 whole entry, looked up): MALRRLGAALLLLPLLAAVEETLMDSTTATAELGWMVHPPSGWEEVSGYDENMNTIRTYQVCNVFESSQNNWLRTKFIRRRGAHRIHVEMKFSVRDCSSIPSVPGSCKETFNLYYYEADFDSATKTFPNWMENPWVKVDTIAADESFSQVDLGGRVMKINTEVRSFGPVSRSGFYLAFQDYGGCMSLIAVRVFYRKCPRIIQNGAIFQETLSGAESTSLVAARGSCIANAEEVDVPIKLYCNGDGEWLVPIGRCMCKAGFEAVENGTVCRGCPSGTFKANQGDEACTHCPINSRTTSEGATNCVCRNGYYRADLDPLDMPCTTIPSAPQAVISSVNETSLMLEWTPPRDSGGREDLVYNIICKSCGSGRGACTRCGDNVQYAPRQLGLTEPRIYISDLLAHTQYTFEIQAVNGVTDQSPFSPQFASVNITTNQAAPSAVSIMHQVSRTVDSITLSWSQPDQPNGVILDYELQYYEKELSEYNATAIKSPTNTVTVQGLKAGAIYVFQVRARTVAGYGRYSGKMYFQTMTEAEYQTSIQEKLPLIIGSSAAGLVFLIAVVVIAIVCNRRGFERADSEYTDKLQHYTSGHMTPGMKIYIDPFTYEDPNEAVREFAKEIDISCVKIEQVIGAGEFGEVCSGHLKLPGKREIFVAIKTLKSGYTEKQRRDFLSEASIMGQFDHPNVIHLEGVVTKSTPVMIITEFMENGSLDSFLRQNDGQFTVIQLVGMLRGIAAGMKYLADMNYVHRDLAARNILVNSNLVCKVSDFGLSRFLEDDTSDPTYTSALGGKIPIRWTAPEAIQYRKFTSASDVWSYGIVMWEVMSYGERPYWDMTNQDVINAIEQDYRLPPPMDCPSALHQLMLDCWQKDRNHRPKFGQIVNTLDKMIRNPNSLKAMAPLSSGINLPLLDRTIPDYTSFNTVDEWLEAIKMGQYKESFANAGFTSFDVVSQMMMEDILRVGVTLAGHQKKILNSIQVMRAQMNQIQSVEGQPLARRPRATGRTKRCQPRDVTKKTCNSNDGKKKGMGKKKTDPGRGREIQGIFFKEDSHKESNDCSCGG
Grb2 SH2, sequence (P62993 whole entry, looked up): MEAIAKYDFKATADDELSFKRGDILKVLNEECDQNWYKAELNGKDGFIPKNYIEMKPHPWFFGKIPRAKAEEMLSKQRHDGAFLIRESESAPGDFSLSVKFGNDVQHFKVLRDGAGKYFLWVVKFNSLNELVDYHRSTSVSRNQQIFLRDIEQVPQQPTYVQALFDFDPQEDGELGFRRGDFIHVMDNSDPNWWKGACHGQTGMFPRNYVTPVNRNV
EPHB1, sequence (P54762 whole entry, looked up): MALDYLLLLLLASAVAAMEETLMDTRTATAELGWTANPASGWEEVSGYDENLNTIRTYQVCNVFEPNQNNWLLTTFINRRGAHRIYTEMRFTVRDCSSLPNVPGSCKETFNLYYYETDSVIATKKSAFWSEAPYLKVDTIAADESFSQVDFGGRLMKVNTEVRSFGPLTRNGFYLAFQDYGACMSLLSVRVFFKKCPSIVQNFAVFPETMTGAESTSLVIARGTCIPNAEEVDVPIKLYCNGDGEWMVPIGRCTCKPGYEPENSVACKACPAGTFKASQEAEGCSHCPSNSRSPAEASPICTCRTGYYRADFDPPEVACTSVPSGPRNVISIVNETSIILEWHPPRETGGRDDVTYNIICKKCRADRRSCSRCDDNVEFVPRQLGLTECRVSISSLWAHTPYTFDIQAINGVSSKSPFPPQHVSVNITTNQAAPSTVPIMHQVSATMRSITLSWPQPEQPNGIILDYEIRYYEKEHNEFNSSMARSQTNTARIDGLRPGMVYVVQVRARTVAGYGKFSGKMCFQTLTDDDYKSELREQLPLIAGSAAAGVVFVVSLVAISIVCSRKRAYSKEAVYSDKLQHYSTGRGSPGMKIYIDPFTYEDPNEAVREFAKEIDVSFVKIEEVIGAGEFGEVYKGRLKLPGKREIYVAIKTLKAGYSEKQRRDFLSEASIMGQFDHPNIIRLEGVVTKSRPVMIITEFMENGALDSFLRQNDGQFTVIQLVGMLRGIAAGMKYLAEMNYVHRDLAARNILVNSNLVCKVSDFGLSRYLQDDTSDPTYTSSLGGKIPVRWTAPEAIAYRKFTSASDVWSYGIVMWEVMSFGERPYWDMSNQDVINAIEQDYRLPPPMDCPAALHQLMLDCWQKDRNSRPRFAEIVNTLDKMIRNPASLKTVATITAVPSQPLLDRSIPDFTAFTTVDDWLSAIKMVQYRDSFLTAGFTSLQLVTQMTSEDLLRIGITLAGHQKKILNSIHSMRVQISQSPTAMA
Jak2, sequence (O60674 whole entry, looked up): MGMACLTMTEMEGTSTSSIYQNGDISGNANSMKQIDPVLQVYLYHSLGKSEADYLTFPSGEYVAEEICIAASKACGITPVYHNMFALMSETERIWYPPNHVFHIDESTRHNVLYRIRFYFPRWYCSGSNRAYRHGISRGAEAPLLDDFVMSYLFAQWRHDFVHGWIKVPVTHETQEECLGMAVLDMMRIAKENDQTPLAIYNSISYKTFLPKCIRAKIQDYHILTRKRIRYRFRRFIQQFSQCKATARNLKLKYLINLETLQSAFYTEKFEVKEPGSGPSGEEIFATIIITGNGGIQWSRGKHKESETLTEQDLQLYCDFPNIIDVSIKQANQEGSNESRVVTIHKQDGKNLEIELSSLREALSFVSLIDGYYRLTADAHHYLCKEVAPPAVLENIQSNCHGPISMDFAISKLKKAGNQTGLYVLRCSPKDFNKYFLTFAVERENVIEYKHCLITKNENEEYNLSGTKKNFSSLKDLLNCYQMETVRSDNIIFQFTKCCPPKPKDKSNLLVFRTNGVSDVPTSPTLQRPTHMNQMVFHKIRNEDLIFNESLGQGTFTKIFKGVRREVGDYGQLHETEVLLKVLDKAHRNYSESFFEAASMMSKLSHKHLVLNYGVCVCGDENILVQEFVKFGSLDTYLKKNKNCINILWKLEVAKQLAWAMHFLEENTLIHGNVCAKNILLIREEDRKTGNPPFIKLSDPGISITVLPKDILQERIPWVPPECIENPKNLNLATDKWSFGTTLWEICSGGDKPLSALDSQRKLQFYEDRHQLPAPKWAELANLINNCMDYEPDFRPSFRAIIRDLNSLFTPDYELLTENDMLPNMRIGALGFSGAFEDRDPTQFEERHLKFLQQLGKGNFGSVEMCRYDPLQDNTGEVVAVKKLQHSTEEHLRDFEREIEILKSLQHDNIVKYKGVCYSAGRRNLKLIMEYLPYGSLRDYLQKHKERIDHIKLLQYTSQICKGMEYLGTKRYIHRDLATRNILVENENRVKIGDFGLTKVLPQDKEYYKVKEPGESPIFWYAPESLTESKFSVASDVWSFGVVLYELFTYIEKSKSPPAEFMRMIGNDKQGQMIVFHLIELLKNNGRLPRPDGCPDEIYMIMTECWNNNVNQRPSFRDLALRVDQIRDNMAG
FGFR1, sequence (P11362 whole entry, looked up): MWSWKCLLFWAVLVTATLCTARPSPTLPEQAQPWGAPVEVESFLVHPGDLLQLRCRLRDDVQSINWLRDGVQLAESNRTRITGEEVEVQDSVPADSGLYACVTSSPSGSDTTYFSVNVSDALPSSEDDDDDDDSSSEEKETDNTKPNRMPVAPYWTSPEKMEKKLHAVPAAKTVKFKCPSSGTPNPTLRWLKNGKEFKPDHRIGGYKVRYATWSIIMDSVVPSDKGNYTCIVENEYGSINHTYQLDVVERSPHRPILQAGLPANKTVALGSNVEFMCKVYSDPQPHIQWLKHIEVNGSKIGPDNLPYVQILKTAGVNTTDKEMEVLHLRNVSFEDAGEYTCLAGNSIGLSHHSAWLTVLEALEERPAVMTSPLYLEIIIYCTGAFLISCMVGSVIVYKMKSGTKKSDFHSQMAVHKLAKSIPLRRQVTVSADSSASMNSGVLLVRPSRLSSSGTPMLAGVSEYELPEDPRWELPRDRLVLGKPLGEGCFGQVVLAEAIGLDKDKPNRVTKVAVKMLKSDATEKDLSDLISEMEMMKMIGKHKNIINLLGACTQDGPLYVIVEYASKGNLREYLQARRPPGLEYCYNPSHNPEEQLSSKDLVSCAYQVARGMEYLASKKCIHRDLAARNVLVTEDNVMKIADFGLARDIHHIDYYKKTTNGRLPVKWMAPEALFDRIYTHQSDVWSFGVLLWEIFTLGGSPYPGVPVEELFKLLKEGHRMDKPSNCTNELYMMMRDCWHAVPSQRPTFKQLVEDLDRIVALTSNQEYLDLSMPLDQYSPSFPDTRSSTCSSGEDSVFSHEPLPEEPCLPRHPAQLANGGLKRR

Sequence | phosphorylation enrichment (AncSZ) | phosphorylation enrichment (EPHB1) | phosphorylation enrichment (EPHB2) | phosphorylation enrichment (FGFR1) | phosphorylation enrichment (FGFR3) | phosphorylation enrichment (Fer (mouse)) | phosphorylation enrichment (Fes) | phosphorylation enrichment (Fyn) | phosphorylation enrichment (Hck) | phosphorylation enrichment (Jak2) | phosphorylation enrichment (MERTK) | phosphorylation enrichment (c-Abl (mouse)) | phosphorylation enrichment (c-Src) | SH2 binding enrichment (Grb2 SH2) | SH2 binding enrichment (SHP2-C SH2) | SH2 binding enrichment (c-Src SH2)
TEAEPYYRSLR [NPHS1_Y1138] | 0.7 | 0.422 | 0.425 | 0.458 | 0.609 | 0.425 | 0.824 | 0.373 | 0.503 | 0.809 | 0.371 | 0.722 | 0.512 | 0.961 | 0.864 | 0.707
QRVLLYVQRET [GRHL3_Y518_R520Q] | 1.82 | 1.04 | 0.763 | 0.855 | 1.13 | 0.885 | 1.89 | 0.673 | 0.509 | 1.89 | 0.452 | 1.36 | 0.57 | 1.66 | 1.52 | 1.03
RAQIRYAQEHD [NSD1_Y1987_R1984Q] | 1.72 | 0.458 | 0.575 | 0.507 | 0.768 | 0.56 | 0.816 | 0.633 | 0.667 | 0.911 | 0.912 | 0.889 | 0.847 | 1.13 | 0.725 | 0.409
SGASGYSATST [CERT1_Y143] | 0.594 | 0.391 | 0.514 | 0.478 | 0.446 | 0.448 | 0.594 | 0.491 | 0.478 | 0.539 | 0.44 | 0.468 | 0.417 | 0.704 | 0.578 | 0.486
ELTAKYLNFFR [P3H4_Y181_Q186R_YF] | 0.684 | 0.414 | 0.425 | 0.394 | 0.513 | 0.335 | 0.778 | 0.444 | 0.456 | 0.632 | 0.435 | 0.574 | 0.366 | 2.78 | 1.14 | 0.832
IRRQGYSHRIL [MYO3B_Y993] | 0.733 | 0.4 | 0.568 | 0.374 | 0.469 | 0.43 | 0.656 | 0.465 | 0.419 | 0.475 | 0.464 | 0.469 | 0.42 | 0.762 | 0.526 | 0.542
FEDALYTVLHR [UNC13D_Y61_YF] | 2.96 | 16 | 13.8 | 2.49 | 2.38 | 11.4 | 1.79 | 9.12 | 9.35 | 1.4 | 9.68 | 5.92 | 7.03 | 0.85 | 0.812 | 0.521
TQKLAYMELQQ [CENPF_Y700] | 0.776 | 0.482 | 0.454 | 0.596 | 0.629 | 0.513 | 0.907 | 0.455 | 0.52 | 0.794 | 0.527 | 0.94 | 0.509 | 0.934 | 1.17 | 0.931
RLPSGYGLAYR [DLK1_Y262] | 0.627 | 0.464 | 0.315 | 1.32 | 0.479 | 0.418 | 0.61 | 0.295 | 0.555 | 0.46 | 0.385 | 0.414 | 0.39 | 0.855 | 0.954 | 0.844
QPSPSYDSSGG [TCF12_Y70_R74G] | 0.668 | 0.44 | 0.778 | 0.611 | 0.623 | 0.553 | 0.731 | 0.667 | 0.604 | 0.579 | 0.452 | 0.477 | 0.478 | 1.02 | 0.977 | 0.573
EKMWTYMRSAE [GRIA4_Y695] | 1.04 | 0.573 | 0.62 | 0.409 | 0.602 | 0.359 | 1.01 | 0.433 | 0.432 | 0.836 | 0.299 | 0.81 | 0.404 | 0.842 | 0.726 | 0.442
RREQDYTNLPS [CSF1R_Y923_R921Q] | 0.805 | 0.573 | 0.468 | 1.01 | 0.951 | 0.532 | 1.75 | 0.446 | 0.492 | 0.449 | 0.466 | 0.691 | 0.446 | 0.926 | 0.821 | 0.759
GIKAAYEAERG [LMNA_Y81_L85R] | 0.566 | 0.344 | 0.363 | 0.403 | 0.487 | 0.365 | 0.755 | 0.329 | 0.406 | 0.517 | 0.347 | 0.475 | 0.344 | 0.83 | 0.685 | 0.553
ILILKYPIEHG [ACTA1_Y71_T68I] | 1.07 | 0.612 | 0.479 | 0.525 | 0.807 | 0.694 | 1.29 | 0.39 | 0.488 | 1.11 | 0.424 | 0.818 | 0.491 | 2.07 | 1.72 | 1.58
RAIGYYSATSK [FAM120A_Y328] | 0.765 | 0.622 | 0.515 | 0.438 | 0.453 | 0.563 | 0.631 | 0.502 | 0.37 | 0.73 | 1.17 | 0.639 | 0.593 | 1.24 | 1.16 | 1.83
ISNATYKQIGL [FLT1_Y199_E201Q] | 0.667 | 0.421 | 0.342 | 0.378 | 0.399 | 0.362 | 0.582 | 0.434 | 0.349 | 0.513 | 0.419 | 0.566 | 0.399 | 0.863 | 0.78 | 0.481
LTKQEYDEAGP [ACTA1_Y364_I359L] | 2.03 | 0.696 | 1.23 | 0.811 | 1.07 | 0.638 | 1.71 | 0.809 | 1.15 | 1.62 | 0.817 | 1.39 | 0.996 | 1.08 | 0.874 | 8.7

Sequence | phosphorylation enrichment (AncSZ) | phosphorylation enrichment (EPHB1) | phosphorylation enrichment (EPHB2) | phosphorylation enrichment (FGFR1) | phosphorylation enrichment (FGFR3) | phosphorylation enrichment (Fer (mouse)) | phosphorylation enrichment (Fes) | phosphorylation enrichment (Fyn) | phosphorylation enrichment (Hck) | phosphorylation enrichment (Jak2) | phosphorylation enrichment (MERTK) | phosphorylation enrichment (c-Abl (mouse)) | phosphorylation enrichment (c-Src) | SH2 binding enrichment (Grb2 SH2) | SH2 binding enrichment (SHP2-C SH2) | SH2 binding enrichment (c-Src SH2)
KKHIPYREHKS [CSNK1G1_Y205] | 1.76 | 1.84 | 1.25 | 1.31 | 3.18 | 1.81 | 2.94 | 0.888 | 1.19 | 3.87 | 1.03 | 3.25 | 1.46 | 1.99 | 2.1 | 1.88
MTRDIYETDFF [INSR_Y1185_YF] | 1.13 | 0.936 | 0.788 | 0.56 | 0.821 | 1.15 | 1.39 | 1.93 | 1.4 | 1.23 | 1.22 | 0.909 | 2.06 | 0.855 | 0.565 | 0.997
GLPINYTTRRI [LAMA2_Y2894] | 0.499 | 0.323 | 0.441 | 0.565 | 0.415 | 0.557 | 0.534 | 0.549 | 0.569 | 0.468 | 0.599 | 0.404 | 0.611 | 0.62 | 0.58 | 0.325
TRVMEYISRLD [CLTCL1_Y1043] | 0.762 | 0.35 | 0.449 | 0.344 | 0.44 | 0.353 | 0.694 | 0.381 | 0.511 | 0.637 | 0.325 | 0.565 | 0.358 | 1.03 | 0.931 | 0.655
EYFDGYWGYSV [ITGA2B_Y265] | 3.58 | 3.88 | 9.3 | 14.6 | 13.7 | 1.4 | 1.42 | 6.24 | 5.55 | 12.3 | 2.87 | 4.7 | 7.52 | 0.999 | 0.578 | 1.94
IGEGTYRQVFK [CDK13_Y716_G717R_YF] | 0.693 | 0.603 | 0.582 | 0.488 | 0.654 | 0.474 | 0.973 | 0.485 | 0.634 | 0.715 | 0.348 | 0.558 | 0.386 | 0.732 | 0.505 | 0.41
GRVLGYGAFGK [FLT4_Y853] | 0.431 | 0.364 | 0.354 | 0.348 | 0.474 | 0.371 | 0.57 | 0.446 | 0.427 | 0.662 | 0.339 | 0.434 | 0.41 | 1.28 | 0.851 | 0.556
DTERIYDDDFF [UBA1_Y560] | 1.36 | 0.661 | 0.62 | 0.605 | 0.876 | 0.995 | 1.41 | 0.748 | 0.668 | 1.63 | 0.702 | 1.01 | 0.736 | 0.836 | 0.611 | 0.599
FNSLPYQVPTS [CALCOCO2_Y358] | 0.942 | 0.464 | 0.504 | 0.431 | 0.578 | 1.36 | 0.63 | 0.467 | 0.56 | 0.611 | 1.34 | 2.56 | 0.561 | 1.12 | 0.871 | 0.843
GRTPLYMDRQG [AGXT_Y194_G190R] | 0.575 | 0.452 | 0.443 | 0.396 | 0.415 | 0.344 | 0.498 | 0.495 | 0.702 | 0.472 | 0.432 | 0.473 | 0.528 | 0.891 | 1.12 | 0.542
RKGGSYSQAAS [HLA-A_Y344_T345S] | 0.599 | 0.498 | 0.491 | 0.523 | 0.567 | 0.294 | 0.625 | 0.537 | 0.38 | 0.401 | 0.656 | 0.738 | 0.741 | 0.95 | 0.836 | 0.542
LEQGEYALRSH [HADHB_Y244_D242G] | 0.935 | 0.521 | 0.556 | 0.736 | 0.505 | 0.564 | 0.993 | 0.747 | 0.697 | 0.855 | 0.567 | 0.815 | 0.681 | 0.752 | 0.788 | 0.55
MARDISRASFF [ALK_Y1278_Y1278S_YF] | 0.626 | 0.463 | 0.467 | 0.41 | 0.473 | 0.392 | 0.682 | 0.443 | 0.384 | 0.53 | 0.432 | 0.545 | 0.396 | 1.06 | 0.716 | 0.454
DVLVEYQGEGR [GNS_Y416] | 0.945 | 0.427 | 0.533 | 0.545 | 0.599 | 0.43 | 1.08 | 0.504 | 0.496 | 0.934 | 0.414 | 0.709 | 0.464 | 0.907 | 0.818 | 0.606
RARPPYTVAAD [ANKZF1_Y572] | 0.551 | 0.4 | 0.378 | 0.39 | 0.458 | 0.443 | 0.591 | 0.35 | 0.45 | 0.58 | 0.418 | 0.466 | 0.349 | 1.27 | 1.14 | 0.933
SLDLSYFTTSS [EMD_Y181_P183T_YF] | 0.876 | 0.468 | 0.475 | 0.499 | 0.605 | 0.37 | 0.836 | 0.38 | 0.451 | 1.04 | 0.371 | 0.644 | 0.382 | 0.803 | 0.675 | 0.55
